The record followed here is patent US20140087995A1 (published 2014).

Changes are numbered by the printed parent chain. Numbered stars: 1 amine (or outer) side, 2 acyl side, 3 side chain; on linkers, the order of the positions; unused ones are H or OH. Bridge positions count the residues as written; N and C are the ends. Side chains are listed from the residue outwards. Ends that are not written are not given here. * marks the point of attachment. C20 diacid = O=C(O)CCCCCCCCCCCCCCCCCCC(=O)*; γGlu = O=C(O)[C@H](CCC(=O)[*:2])N[*:1]; AEEA = NCCOCCOCC(=O)O

First the molecules themselves.
T1: human amylin receptor (amylin 3(a) receptor: human calcitonin receptor plus RAMP-3) (human, UniProt P30988 25-474; O60896 24-148, limits assumed)
T1 sequence (looked up) 1: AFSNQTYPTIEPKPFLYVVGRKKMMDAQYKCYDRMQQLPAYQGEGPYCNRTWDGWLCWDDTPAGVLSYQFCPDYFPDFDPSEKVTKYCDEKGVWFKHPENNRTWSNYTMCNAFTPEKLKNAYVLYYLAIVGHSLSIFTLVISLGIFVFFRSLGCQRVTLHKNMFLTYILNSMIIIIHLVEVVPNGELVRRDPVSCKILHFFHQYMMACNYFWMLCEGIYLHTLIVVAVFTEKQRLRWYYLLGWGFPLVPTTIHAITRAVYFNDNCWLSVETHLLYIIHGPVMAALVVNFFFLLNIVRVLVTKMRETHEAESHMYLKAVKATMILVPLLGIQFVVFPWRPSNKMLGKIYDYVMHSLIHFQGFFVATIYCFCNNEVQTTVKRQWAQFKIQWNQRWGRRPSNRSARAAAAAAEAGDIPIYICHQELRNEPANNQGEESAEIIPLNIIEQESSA
T1 sequence (looked up) 2: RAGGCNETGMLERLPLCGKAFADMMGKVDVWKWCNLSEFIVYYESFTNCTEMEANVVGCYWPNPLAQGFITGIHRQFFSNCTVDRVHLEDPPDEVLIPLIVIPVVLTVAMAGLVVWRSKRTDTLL

T2: human calcitonin receptor (human, UniProt P30988 25-474)
T2 sequence (looked up): T1 sequence (looked up) 1

T3: human calcitonin receptor (human, UniProt P30988 25-474)
T3 sequence (looked up): T1 sequence (looked up) 1

T4: human amylin receptor (amylin 3(a) receptor: human calcitonin receptor with RAMP-3) (human, UniProt P30988 25-474; O60896 24-148)
T4 sequence (looked up) 1: T1 sequence (looked up) 1
T4 sequence (looked up) 2: T1 sequence (looked up) 2

B1: N^ε-[2-[2-[2-[[(4S)-4-carboxy-4-(19-carboxynonadecanoylamino)butanoyl]amino]ethoxy]ethoxy]acetyl]Lys[Arg1,Arg17,Pro21,Pro27,His35]-h-amylin (peptide)
peptide: K([AEEA-γGlu-C20 diacid])RCNTATCATQRLANFLRHSSPNFGAIPSSTNVGSHTY-NH2
modifications: disulfide 3-8; N-terminus assumed
SMILES: CC[C@H](C)[C@H](NC(=O)[C@H](C)NC(=O)CNC(=O)[C@H](Cc1ccccc1)NC(=O)[C@H](CC(N)=O)NC(=O)[C@@H]1CCCN1C(=O)[C@H](CO)NC(=O)[C@H](CO)NC(=O)[C@H](Cc1c[nH]cn1)NC(=O)[C@H](CCCNC(=N)N)NC(=O)[C@H](CC(C)C)NC(=O)[C@H](Cc1ccccc1)NC(=O)[C@H](CC(N)=O)NC(=O)[C@H](C)NC(=O)[C@H](CC(C)C)NC(=O)[C@H](CCCNC(=N)N)NC(=O)[C@H](CCC(N)=O)NC(=O)[C@@H](NC(=O)[C@H](C)NC(=O)[C@@H]1CSSC[C@H](NC(=O)[C@H](CCCNC(=N)N)NC(=O)[C@@H](N)CCCCNC(=O)COCCOCCNC(=O)CC[C@H](NC(=O)CCCCCCCCCCCCCCCCCCC(=O)O)C(=O)O)C(=O)N[C@@H](CC(N)=O)C(=O)N[C@@H]([C@@H](C)O)C(=O)N[C@@H](C)C(=O)N[C@@H]([C@@H](C)O)C(=O)N1)[C@@H](C)O)C(=O)N1CCC[C@H]1C(=O)N[C@@H](CO)C(=O)N[C@@H](CO)C(=O)N[C@H](C(=O)N[C@@H](CC(N)=O)C(=O)N[C@H](C(=O)NCC(=O)N[C@@H](CO)C(=O)N[C@@H](Cc1c[nH]cn1)C(=O)N[C@H](C(=O)N[C@@H](Cc1ccc(O)cc1)C(N)=O)[C@@H](C)O)C(C)C)[C@@H](C)O
notes: Synthetic acylated analogue of human amylin, extended by Lys at the N-terminus; also called compound 45
B2: N^ε1-[(4S)-4-carboxy-4-(19-carboxynonadecanoylamino)butanoyl]-[Arg17,Pro21,Pro27]-h-amylin (peptide)
peptide: K([γGlu-C20 diacid])CNTATCATQRLANFLRHSSPNFGAIPSSTNVGSNTY-NH2
modifications: disulfide 2-7; N-terminus assumed
SMILES: CC[C@H](C)[C@H](NC(=O)[C@H](C)NC(=O)CNC(=O)[C@H](Cc1ccccc1)NC(=O)[C@H](CC(N)=O)NC(=O)[C@@H]1CCCN1C(=O)[C@H](CO)NC(=O)[C@H](CO)NC(=O)[C@H](Cc1c[nH]cn1)NC(=O)[C@H](CCCNC(=N)N)NC(=O)[C@H](CC(C)C)NC(=O)[C@H](Cc1ccccc1)NC(=O)[C@H](CC(N)=O)NC(=O)[C@H](C)NC(=O)[C@H](CC(C)C)NC(=O)[C@H](CCCNC(=N)N)NC(=O)[C@H](CCC(N)=O)NC(=O)[C@@H](NC(=O)[C@H](C)NC(=O)[C@@H]1CSSC[C@H](NC(=O)[C@@H](N)CCCCNC(=O)CC[C@H](NC(=O)CCCCCCCCCCCCCCCCCCC(=O)O)C(=O)O)C(=O)N[C@@H](CC(N)=O)C(=O)N[C@@H]([C@@H](C)O)C(=O)N[C@@H](C)C(=O)N[C@@H]([C@@H](C)O)C(=O)N1)[C@@H](C)O)C(=O)N1CCC[C@H]1C(=O)N[C@@H](CO)C(=O)N[C@@H](CO)C(=O)N[C@H](C(=O)N[C@@H](CC(N)=O)C(=O)N[C@H](C(=O)NCC(=O)N[C@@H](CO)C(=O)N[C@@H](CC(N)=O)C(=O)N[C@H](C(=O)N[C@@H](Cc1ccc(O)cc1)C(N)=O)[C@@H](C)O)C(C)C)[C@@H](C)O
notes: Synthetic acylated analogue of human amylin; also called compound 48
B3: N^α1-[(4S)-4-carboxy-4-(19-carboxynonadecanoylamino)butanoyl]-[Glu14,Arg17,Pro21,Pro27]-h-amylin (peptide)
peptide: KCNTATCATQRLAEFLRHSSPNFGAIPSSTNVGSNTY
modifications: C20 diacid-gGlu on the alpha amino group of the N-terminal residue; disulfide bridge Cys2-Cys7; C-terminal amide
notes: also called compound 9
B4: N^α1-[2-[2-[2-[[2-[2-[2-[[(4S)-4-carboxy-4-(19-carboxynonadecanoylamino)butanoyl]amino]ethoxy]ethoxy]acetyl]amino]ethoxy]ethoxy]acetyl]-[Arg17,Pro21,Pro27]-h-am … (peptide)
peptide: B3 peptide with E14N
modifications: C20 diacid-gGlu-2xOEG on the alpha amino group of the N-terminal residue; disulfide bridge Cys2-Cys7; C-terminal amide
notes: also called compound 24

For one assay, the target named is T1, human amylin receptor (amylin 3(a) …). Nature of the assay: cell-based or functional assay.
Consider B1, for which the “Ratio hCT/hAmylin funct.” value came out at 17 ratio and the “hAmylin-R funct. EC50” value is 0.594 nM.
The corresponding values for B2 are 17 ratio and 0.116 nM.

Another assay addresses T2, human calcitonin receptor. Nature of the assay: cell-based or functional assay.
Consider B1, for which the “hCTR funct. EC50” value amounted to 10.1 nM.
The same measure, in the same setting: for B2 the value was 1.97 nM.

The next assay concerns the target T3, human calcitonin receptor. Nature of the assay: cell-based or functional assay.
For the molecule B3, the “Ratio hCT/hAmylin funct.” value was 7.4 and the “hCTR funct. EC50” value was determined as 1.29 nM.
The corresponding values for B4 are 23.1 and 10 nM.

A further assay addresses T4, human amylin receptor (amylin 3(a) …). Nature of the assay: cell-based or functional assay.
Consider B3, for which the “hAmylin-R funct. EC50” value was determined as 0.175 nM.
On the same count and under the same terms, the value for B4 was 0.433 nM.
